Target: T1, LDL (low density lipoprotein; Biomedical Technologies, Inc) (UniProt P04114 28-4563)
T1 construct: LDL is a lipoprotein particle (avg. mass 2.5x10^6 Da) of lipid and protein, not a pure protein
Assay: size exclusion chromatography (Superose 6) of a pre-incubated LDL + sLDLR mix (7 micromolar each); ratio of bound and free sLDLR peaks by sLDLR ELISA, assuming 5-fold dilution
Protocol: Therefore, we employed another method for testing the binding of sLDLR to LDL. For this purpose, we incubated for 1 h at 37° C. a solution of LDL (Biomedical technologies, Inc, Ma, USA) and r-hsLDLR of Example 5 at a final concentration of 7 micromolar each in PBS plus 10 micromolar Calcium Chloride (PBS+). An aliquot of 0.1 ml was subjected to size exclusion chromatography on a Superose 6 HR 10/30 column (GE Healthcare Life Sciences Cat. No 17-5172-01). The column was eluted with PBS+ at a flow rate of 0.4 ml/min and fractions of 0.5 ml were collected. The concentration of r-hsLDLR was determined by a specific ELISA as follows:
Mab #28 anti-human sLDLR (5 microgram/ml in PBS; corresponding to Mab from hybridoma clone 28 deposited at the CNCM under No. 1-2391-U.S. Pat. No. 6,849,720) was used for coating of 96-well ELISA plates at 0.1 ml/well overnight at room temperature. The plates were then washed ×3 with PBS containing 0.05% Tween-20 and then blocked by 0.3 ml blocking buffer (1% bovine serum albumin, 5% sucrose, 0.05% sodium azide in PBS). The plates were then washed 3× with PBS. […] The plated were then washed 3× with reagent diluent, a substrate solution (0.1 ml TMB/E, Chemicon) is added to each well and the plates were either read within 5 min at 630 nm or stopped with H₂SO₄ (2 N 0.05 ml) and read at 450 nm.

Kd: ~10 nM
B1: recombinant human soluble LDL receptor, amino acid residues 25-352 of the LDLR precursor, expressed in CHO cells (receptor)
chain: not shown
modifications: N-glycosylated at Asn 272 of the LDLR precursor
notes: range 25-352; Produced in DHFR-deficient CHO cells (InterPharm Laboratories); also called sLDLR; r-hsLDLR

Reference: patent publication US20100087363A1 (YEDA RESEARCH AND DEVELOPMENT, published 2010)
